According to patent publication US20100222269A1 (Novo Nordisk, published 2010):
Starred links: 1 amine or outer side, 2 acyl side, 3 side chain; linkers in the order of their positions; H or OH if unused. Positions of bridges follow the written chain, without caps; N, C: chain ends. Non-standard residues stand in square brackets, D forms with d. Groups on a side chain read outwards from the residue. No end group written: not given here. *: point of attachment. C20 diacid = O=C(O)CCCCCCCCCCCCCCCCCCC(=O)*; C18 diacid = O=C(O)CCCCCCCCCCCCCCCCC(=O)*; 17‑carboxyheptanoyl = not defined here; γGlu = O=C(O)[C@H](CCC(=O)[*:2])N[*:1]; AEEA = NCCOCCOCC(=O)O

B1: N-epsilon3-[2-(2-{2-[2-(2-{2-[(S)-4-carboxy-4-(17-carboxyheptadecanoylamino)butyrylamino]ethoxy}ethoxy)acetylamino]ethoxy}ethoxy)acetyl]-[Lys3,Pro18]-pramlintid … (peptide)
peptide: KCK([AEEA-AEEA-γGlu-C18 diacid])TATCATQRLANFLVPSSNNFGPILPPTNVGSNTY-NH2
modifications: disulfide 2-7 (inferred)
B2: N-epsilon3-[2-(2-{2-[4-(16-1H-tetrazol-5-yl-hexadecanoylsulfamoyl) butyrylamino]ethoxy}ethoxy)acetyl]-[Lys3]pramlintide (1-37) (peptide)
peptide: KCK([AEEA-4‑(16-1H-tetrazol-5-yl-hexadecanoylsulfamoyl)butyryl])TATCATQRLANFLVHSSNNFGPILPPTNVGSNTY-NH2
modifications: disulfide 2-7 (inferred)
B3: N-alpha-(2-(2-(2-(19-carboxynonadecanoyl-Glu-amino)ethoxy)ethoxy)acetyl)[Glu1,Gln3,Arg18,Gln21,Leu23,Val26]-pramlintide (1-37) (peptide)
peptide: {C20 diacid}-E[AEEA]ECQTATCATQRLANFLVRSSQNLGPVLPPTNVGSNTY-NH2
modifications: disulfide 4-9 (inferred)
B4: N-epsilon3-[2-(2-{2-[2-(2-{2[(S)-4-carboxy-4-(19-carboxynonadecanoylamino) butyrylamino]ethoxy}ethoxy)acetylamino]ethoxy}ethoxy)acetyl]-[Lys3]-pramlintide … (peptide)
peptide: KCK([AEEA-AEEA-γGlu-C20 diacid])TATCATQRLANFLVHSSNNFGPILPPTNVGSNTY-NH2
modifications: disulfide 2-7 (inferred)
B5: N-epsilon3-[(S)-4-Carboxy-4-(17-carboxyheptadecanoylamino)butyryl]-[Lys3,Arg18,Gln21,Leu23,Val26]-pramlintide (1-37) (peptide)
peptide: KCK([γGlu-C18 diacid])TATCATQRLANFLVRSSQNLGPVLPPTNVGSNTY-NH2
modifications: disulfide 2-7 (inferred)
B6: N-alpha-(19-carboxynonadecanoyl)-Glu-Glu-Glu-[Glu1,Gln3,Arg18,Gln21,Leu23,Val26]-pramlintide (1-37) (peptide)
peptide: {C20 diacid}-EEEECQTATCATQRLANFLVRSSQNLGPVLPPTNVGSNTY-NH2
modifications: disulfide 5-10 (inferred)
B7: N-epsilon3-(19-carboxynonadecanoyl-Glu-Glu-Glu-Glu) [Lys3, Arg18, Gln21, Leu23, Val26]pramlintide (1-37) (peptide)
peptide: KCK([Glu-Glu-Glu-Glu-C20 diacid])TATCATQRLANFLVRSSQNLGPVLPPTNVGSNTY-NH2
modifications: disulfide 2-7 (inferred)
B8: N-epsilon25-[(S)-4-carboxy-4-(17-carboxyheptadecanoylamino)butyryl]-[Lys25]-pramlintide (1-37) (peptide)
peptide: KCNTATCATQRLANFLVHSSNNFGK([γGlu-C18 diacid])ILPPTNVGSNTY-NH2
modifications: disulfide 2-7 (inferred)
B9: N-epsilon3-(2-{2-[2-(2-{2-[2-((S)-4-carboxy-4-{4-carboxy-4-[4-carboxy-4-(17-carboxyheptadecanoylamino)butyrylamino]butyrylamino}butyrylamino) … (peptide)
peptide: KCK([AEEA-AEEA-γGlu-γGlu-γGlu-C18 diacid])TATCATQRLANFLVPSSNNFGPILPPTNVGSNTY-NH2
modifications: disulfide 2-7 (inferred)
B10: N-epsilon3-[(S)-4-carboxy-4-(17-carboxyheptadecanoylamino)butyryl]-[Lys3,Pro18]-pramlintide (1-37) (peptide)
peptide: KCK([γGlu-C18 diacid])TATCATQRLANFLVPSSNNFGPILPPTNVGSNTY-NH2
modifications: disulfide 2-7 (inferred)
B11: N-alpha-(19-carboxynonadecanoyl)-Glu-Glu-Arg-[Glu1,Gln3,Arg18,Gln21,Leu23,Val26]-pramlintide (1-37) (peptide)
peptide: {C20 diacid}-EERECQTATCATQRLANFLVRSSQNLGPVLPPTNVGSNTY-NH2
modifications: disulfide 5-10 (inferred)
B12: N-alpha-[4-(16-1H-tetrazol-5-yl-hexadecanoylsulfamoyl)-butyryl]-Glu-Glu-Arg-[Glu1]pramlintide (1-37) (peptide)
peptide: EERECNTATCATQRLANFLVHSSNNFGPILPPTNVGSNTY-NH2
modifications: disulfide 5-10 (inferred); not fully specified (N-terminus)
B13: N-epsilon1-[(S)-4-carboxy-4-(17-carboxyheptadecanoylamino)butyryl]-[Gly3,Ala17,Arg18,Ser28]-pramlintide (1-37) (peptide)
peptide: K([γGlu-C18 diacid])CGTATCATQRLANFLARSSNNFGPILSPTNVGSNTY-NH2
modifications: disulfide 2-7 (inferred)
B14: N-epsilon3-(2-{2-[2-(2-{2-[2-(17-carboxyheptadecanoylamino) ethoxy]ethoxy}acetylamino)ethoxy]ethoxy}acetyl)-[Lys3]-pramlintide (1-37) (peptide)
peptide: KCK([AEEA-AEEA-C18 diacid])TATCATQRLANFLVHSSNNFGPILPPTNVGSNTY-NH2
modifications: disulfide 2-7 (inferred)
B15: N-alpha-[(S)-4-carboxy-4-(17-carboxyheptadecanoylamino)butyryl]-[Arg18,Leu23,Val26]-pramlintide (2-37) (peptide)
peptide: CNTATCATQRLANFLVRSSNNLGPVLPPTNVGSNTY
modifications: N-alpha-[(S)-4-carboxy-4-(17-carboxyheptadecanoylamino)butyryl] on the N-terminal Cys2; disulfide bridge between the two Cys; C-terminal amide
B16: N-alpha-(2-{2-[2-(2-{2-[2-((S)-4-Carboxy-4-{4-carboxy-4-[4-carboxy-4-(17-carboxyheptadecanoylamino)butyrylamino]butyrylamino}butyrylamino) … (peptide)
peptide: CNTATCATQRLANFLVRSSNNLGPVLPPTNVGSNTY
modifications: N-alpha-(2-{2-[2-(2-{2-[2-((S)-4-Carboxy-4-{4-carboxy-4-[4-carboxy-4-(17-carboxyheptadecanoylamino)butyrylamino]butyrylamino}butyrylamino) ethoxy}ethoxy]acetylamino)ethoxy}ethoxy]acetyl) on the N-terminal Cys2; disulfide bridge between the two Cys; C-terminal amide
B17: N-alpha-(17-carboxyheptanoyl)-[Arg18,Leu23,Val26]-pramlintide (2-37) (peptide)
peptide: {17‑carboxyheptanoyl}-CNTATCATQRLANFLVRSSNNLGPVLPPTNVGSNTY-NH2
modifications: disulfide 1-6 (inferred); reading uncertain; also: printed as N-alpha-(17-carboxyheptanoyl)-[Arg18,Leu23,Val26]-pramlintide (2-37)
B18: N-epsilon25-[2-(2-{2-[2-(2-{2-[(S)-4-carboxy-4-((S)-4-carboxy-4-{(S)-4-carboxy-4-[(S)-4-carboxy-4-(17-carboxyheptadecanoylamino)butyrylamino]butyrylamino}butyry … (peptide)
peptide: KCNTATCATQRLANFLVHSSNNFGK([AEEA-AEEA-γGlu-γGlu-γGlu-γGlu-C18 diacid])ILPPTNVGSNTY-NH2
modifications: disulfide 2-7 (inferred)
B19: N-epsilon3-(17-carboxyheptanoyl)-[Lys3,Arg18]-pramlintide (1-37) (peptide)
peptide: KCK(17‑carboxyheptanoyl)TATCATQRLANFLVRSSNNFGPILPPTNVGSNTY-NH2
modifications: disulfide 2-7 (inferred)
B20: N-alpha-[(S)-4-carboxy-4-(19-carboxynonadecanoylamino)butyryl]-Glu-Glu-Arg-[Glu1]-pramlintide (1-37) (peptide)
peptide: EERECNTATCATQRLANFLVHSSNNFGPILPPTNVGSNTY
modifications: N-alpha-[(S)-4-carboxy-4-(19-carboxynonadecanoylamino)butyryl] on the N-terminal Glu of the extension; disulfide bridge between the two Cys; C-terminal amide
B21: N-alpha-(17-carboxyheptanoyl)-Glu-[Glu1]-pramlintide (1-37) (peptide)
peptide: {17‑carboxyheptanoyl}-EECNTATCATQRLANFLVHSSNNFGPILPPTNVGSNTY-NH2
modifications: disulfide 3-8 (inferred); reading uncertain; also: printed as N-alpha-(17-carboxyheptanoyl)-Glu-[Glu1]-pramlintide (1-37)
B22: N-alpha-(19-carboxynonadecanoyl)-Glu-Glu-Arg-[Glu1]-pramlintide (1-37) (peptide)
peptide: {C20 diacid}-EERECNTATCATQRLANFLVHSSNNFGPILPPTNVGSNTY-NH2
modifications: disulfide 5-10 (inferred)
B23: N-alpha-(17-carboxyheptanoyl)-[Arg18]-pramlintide (1-37) (peptide)
peptide: {17‑carboxyheptanoyl}-KCNTATCATQRLANFLVRSSNNFGPILPPTNVGSNTY-NH2
modifications: disulfide 2-7 (inferred); reading uncertain; also: printed as N-alpha-(17-carboxyheptanoyl)-[Arg18]-pramlintide (1-37)
B24: N-epsilon3-(2-(2-(2-(19-carboxynonadecanoyl-Glu-Glu-amino)ethoxy)ethoxy)acetyl) [Lys3, Arg18, Gln21, Leu23, Val26]pramlintide (1-37) (peptide)
peptide: KCK([AEEA-Glu-Glu-C20 diacid])TATCATQRLANFLVRSSQNLGPVLPPTNVGSNTY-NH2
modifications: disulfide 2-7 (inferred)
B25: N-epsilon3-(19-carboxynonadecanoyl)-[Lys3]-pramlintide (1-37) (peptide)
peptide: KCK(C20 diacid)TATCATQRLANFLVHSSNNFGPILPPTNVGSNTY-NH2
modifications: disulfide 2-7 (inferred)
B26: N-epsilon3-(17-carboxyheptadecanoyl)-[Lys3]-pramlintide (1-37) (peptide)
peptide: KCK(C18 diacid)TATCATQRLANFLVHSSNNFGPILPPTNVGSNTY-NH2
modifications: disulfide 2-7 (inferred)
B27: N-epsilon3-(17-carboxyheptanoyl)-[Glu1,Lys3,Glu18]-pramlintide (1-37) (peptide)
peptide: ECK(17‑carboxyheptanoyl)TATCATQRLANFLVESSNNFGPILPPTNVGSNTY-NH2
modifications: disulfide 2-7 (inferred)

These binders were tested against Amylin 3(a) receptor (human calcitonin receptor (CTa) with RAMP-3) on BHK570 cells (human, UniProt P30988 25-474) (assay: cell-based or functional assay).
Sequence of Amylin 3(a) receptor (human calcitonin receptor (CTa) with RAMP-3) on BHK570 cells (P30988 25-474): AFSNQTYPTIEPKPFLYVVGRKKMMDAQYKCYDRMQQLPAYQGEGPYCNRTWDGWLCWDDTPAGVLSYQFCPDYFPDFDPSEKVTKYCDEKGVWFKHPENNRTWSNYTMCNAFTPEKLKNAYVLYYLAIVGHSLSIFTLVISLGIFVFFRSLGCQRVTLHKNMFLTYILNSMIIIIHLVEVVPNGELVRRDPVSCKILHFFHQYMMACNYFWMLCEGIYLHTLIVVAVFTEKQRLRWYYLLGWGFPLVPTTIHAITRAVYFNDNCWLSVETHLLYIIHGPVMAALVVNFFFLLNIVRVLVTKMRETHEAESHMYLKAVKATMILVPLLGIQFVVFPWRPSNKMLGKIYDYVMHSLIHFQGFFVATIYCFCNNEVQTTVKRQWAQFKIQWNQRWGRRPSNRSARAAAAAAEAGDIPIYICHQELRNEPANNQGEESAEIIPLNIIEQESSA
In the case of B1, the Potency luciferase assay is reported as 10 nM.
B2 gave a Potency luciferase assay of 0.1 nM.
With B3 the Potency luciferase assay was 0.4 nM.
B4 showed a Potency luciferase assay of 0.3 nM.
B5 gave a Potency luciferase assay of 0.04 nM.
Work on B6 yielded a Potency luciferase assay of 2 nM.
Work on B7 yielded a Potency luciferase assay of 0.6 nM.
B8 was tested, and the Potency luciferase assay was 0.09 nM.
B9 showed a Potency luciferase assay of 20 nM.
With B10 the Potency luciferase assay was 0.7 nM.
For B11, the Potency luciferase assay was 0.09 nM.
B12 was tested, and the Potency luciferase assay was 0.09 nM.
Binder B13 has a Potency luciferase assay of 0.07 nM.
In the case of B14, the Potency luciferase assay is reported as 0.1 nM.
Binder B15 has a Potency luciferase assay of 0.03 nM.
B16 showed a Potency luciferase assay of 0.9 nM.
Binder B17 has a Potency luciferase assay of 0.1 nM.
B18 was tested, and the Potency luciferase assay was 0.3 nM.
For B19, the Potency luciferase assay was 0.06 nM.
For B20, the Potency luciferase assay was 0.3 nM.
B21 gave a Potency luciferase assay of 0.4 nM.
B22 gave a Potency luciferase assay of 0.08 nM.
Work on B23 yielded a Potency luciferase assay of 0.03 nM.
In the case of B24, the Potency luciferase assay is reported as 0.3 nM.
B25 was tested, and the Potency luciferase assay was 0.05 nM.
B26 showed a Potency luciferase assay of 0.05 nM.
In the case of B27, the Potency luciferase assay is reported as 0.03 nM.
